Target: IL-2 receptors on the cell surface of human PBMC populations (Tregs, CD25^high T helper cells, NK cells, cytotoxic T cells)
Assay: cell-based or functional assay

Row | Substance | pSTAT5 EC50, Treg [nM] | pSTAT5 Max. Signal, Treg (relative to V69A/Q74P IL-2-Fc) | Ratio (CD25^high T helper EC50 / Treg EC50)
1 | irrelevant (non-binding) antibody with IL-2 N88D fused to its C-terminus | 0.37 | 0.5 | 
2 | IL-2-Fc fusion protein K35E/V69A/Q74P, (G4S)4 linker, IgG1 Fc N297G |  |  | 300
3 | IL-2-Fc fusion protein R38N/V69A/Q74P, (G4S)4 linker, IgG1 Fc N297G |  |  | 2820
4 | IL-2-Fc fusion protein R38E/V69A/Q74P, (G4S)4 linker, IgG1 Fc N297G |  |  | 9
5 | IL-2-Fc fusion protein F42K/V69A/Q74P, (G4S)4 linker, IgG1 Fc N297G |  |  | 15.9
6 | IL-2-Fc fusion protein R38Q/V69A/Q74P, (G4S)4 linker, IgG1 Fc N297G |  |  | 28.4
7 | IL-2-Fc fusion protein F42Q/V69A/Q74P, (G4S)4 linker, IgG1 Fc N297G |  |  | 25.9

Source: US20220226442A1
